Assay results reported in patent US6590086.
“And” between values parts separate entries of the source, which are not always exact repeats. Identical values can stand only once.

B1: RB-H, P06400 2-928 (protein)
chain: PPKTPRKTAATAAAAAAEPPAPPPPPPPEEDPEQDSGPEDLPLVRLEFEETEEPDFTALCQKLKIPDHVRERAWLTWEKVSSVDGVLGGYIQKKKELWGICIFIAAVDLDEMSFTFTELQKNIEISVHKFFNLLKEIDTSTKVDNAMSRLLKKYDVLFALFSKLERTCELIYLTQPSSSISTEINSALVLKVSWITFLLAKGEVLQMEDDLVISFQLMLCVLDYFIKLSPPMLLKEPYKTAVIPINGSPRTPRRGQNRSARIAKQLENDTRIIEVLCKEHECNIDEVKNVYFKNFIPFMNSLGLVTSNGLPEVENLSKRYEEIYLKNKDLDARLFLDHDKTLQTDSIDSFETQRTPRKSNLDEEVNVIPPHTPVRTVMNTIQQLMMILNSASDQPSENLISYFNNCTVNPKESILKRVKDIGYIFKEKFAKAVGQGCVEIGSQRYKLGVRLYYRVMESMLKSEEERLSIQNFSKLLNDNIFHMSLLACALEVVMATYSRSTSQNLDSGTDLSFPWILNVLNLKAFDFYKVIESFIKAEGNLTREMIKHLERCEHRIMESLAWLSDSPLFDLIKQSKDREGPTDHLESACPLNLPLQNNHTAADMYLSPVRSPKKKGSTTRVNSTANAETQATSAFQTQKPLKSTSLSLFYKKVYRLAYLRLNTLCERLLSEHPELEHIIWTLFQHTLQNEYELMRDRHLDQIMMCSMYGICKVKNIDLKFKIIVTAYKDLPHAVQETFKRVLIKEEEYDSIIVFYNSVFMQRLKTNILQYASTRPPTLSPIPHIPRSPYKFPSSPLRIPGGNIYISPLKSPYKISEGLPTPTKMTPRSRILVSIGESFGTSEKFQKINQMVCNSDRVLKRSAEGSNPPKPLKKLRFDIEGSDEADGSKHLPGESKFQQKLAEMTSTRTRMQKQKMNDSMDTSNKEEK

Experiments:
[1] = molecular target: SV40 large T antigen (SV40) (UniProt P03070); experiment: in vitro phosphorylation of the large T:Rb complex, immunoprecipitation with anti-large T antibody
[2] = molecular target: SV40 large T antigen (SV40), P03070; experiment: as above; conditions: remark: other sources report otherwise

Molecule | percent of the Rb protein released from large T by phosphorylation [1] [%] | percent of the Rb protein that remained bound after phosphorylation [2]
RB-E (from UniProt P06400 2-928) | 70 | –
B1 | – | 20% and 30%
